Source: US20220298218A1 (ANTAG THERAPEUTICS, published 2022)
Where no end group is shown, it is not given here. [ ]: non-standard residue; d: D form. The star is where a group is joined. C16 diacid = O=C(O)CCCCCCCCCCCCCCC(=O)*; Aib = CC(C)(N)C(=O)O

T1: human GIP receptor (human, UniProt P48546 22-466)
T1 sequence (looked up): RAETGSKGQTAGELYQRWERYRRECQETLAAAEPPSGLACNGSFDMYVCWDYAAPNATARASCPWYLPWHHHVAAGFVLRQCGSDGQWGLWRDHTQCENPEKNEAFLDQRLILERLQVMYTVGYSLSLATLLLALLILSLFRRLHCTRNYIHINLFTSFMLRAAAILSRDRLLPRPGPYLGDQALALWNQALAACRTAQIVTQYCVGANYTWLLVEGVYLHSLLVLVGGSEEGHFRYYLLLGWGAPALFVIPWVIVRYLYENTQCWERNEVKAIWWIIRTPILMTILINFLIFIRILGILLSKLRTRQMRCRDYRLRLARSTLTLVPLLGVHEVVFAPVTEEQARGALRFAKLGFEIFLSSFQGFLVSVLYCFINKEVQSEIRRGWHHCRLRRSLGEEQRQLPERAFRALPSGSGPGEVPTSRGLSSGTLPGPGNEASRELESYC

B1: AT639 (peptide)
peptide: VETFISDYSIAMDKIK(C16 diacid)QQDFVNWLLAQKPSSGAPPPS-OH
modifications: N-terminus assumed
SMILES: CC[C@H](C)[C@H](NC(=O)[C@H](CO)NC(=O)[C@H](Cc1ccc(O)cc1)NC(=O)[C@H](CC(=O)O)NC(=O)[C@H](CO)NC(=O)[C@@H](NC(=O)[C@H](Cc1ccccc1)NC(=O)[C@@H](NC(=O)[C@H](CCC(=O)O)NC(=O)[C@@H](N)C(C)C)[C@@H](C)O)[C@@H](C)CC)C(=O)N[C@@H](C)C(=O)N[C@@H](CCSC)C(=O)N[C@@H](CC(=O)O)C(=O)N[C@@H](CCCCN)C(=O)N[C@H](C(=O)N[C@@H](CCCCNC(=O)CCCCCCCCCCCCCCC(=O)O)C(=O)N[C@@H](CCC(N)=O)C(=O)N[C@@H](CCC(N)=O)C(=O)N[C@@H](CC(=O)O)C(=O)N[C@@H](Cc1ccccc1)C(=O)N[C@H](C(=O)N[C@@H](CC(N)=O)C(=O)N[C@@H](Cc1c[nH]c2ccccc12)C(=O)N[C@@H](CC(C)C)C(=O)N[C@@H](CC(C)C)C(=O)N[C@@H](C)C(=O)N[C@@H](CCC(N)=O)C(=O)N[C@@H](CCCCN)C(=O)N1CCC[C@H]1C(=O)N[C@@H](CO)C(=O)N[C@@H](CO)C(=O)NCC(=O)N[C@@H](C)C(=O)N1CCC[C@H]1C(=O)N1CCC[C@H]1C(=O)N1CCC[C@H]1C(=O)N[C@@H](CO)C(=O)O)C(C)C)[C@@H](C)CC
B2: AT636 (peptide)
peptide: VGTFISDYSIAMDKIK(C16 diacid)QQDFVNWLLAQKPSSGAPPPS-OH
modifications: N-terminus assumed
SMILES: CC[C@H](C)[C@H](NC(=O)[C@H](CO)NC(=O)[C@H](Cc1ccc(O)cc1)NC(=O)[C@H](CC(=O)O)NC(=O)[C@H](CO)NC(=O)[C@@H](NC(=O)[C@H](Cc1ccccc1)NC(=O)[C@@H](NC(=O)CNC(=O)[C@@H](N)C(C)C)[C@@H](C)O)[C@@H](C)CC)C(=O)N[C@@H](C)C(=O)N[C@@H](CCSC)C(=O)N[C@@H](CC(=O)O)C(=O)N[C@@H](CCCCN)C(=O)N[C@H](C(=O)N[C@@H](CCCCNC(=O)CCCCCCCCCCCCCCC(=O)O)C(=O)N[C@@H](CCC(N)=O)C(=O)N[C@@H](CCC(N)=O)C(=O)N[C@@H](CC(=O)O)C(=O)N[C@@H](Cc1ccccc1)C(=O)N[C@H](C(=O)N[C@@H](CC(N)=O)C(=O)N[C@@H](Cc1c[nH]c2ccccc12)C(=O)N[C@@H](CC(C)C)C(=O)N[C@@H](CC(C)C)C(=O)N[C@@H](C)C(=O)N[C@@H](CCC(N)=O)C(=O)N[C@@H](CCCCN)C(=O)N1CCC[C@H]1C(=O)N[C@@H](CO)C(=O)N[C@@H](CO)C(=O)NCC(=O)N[C@@H](C)C(=O)N1CCC[C@H]1C(=O)N1CCC[C@H]1C(=O)N1CCC[C@H]1C(=O)N[C@@H](CO)C(=O)O)C(C)C)[C@@H](C)CC
B3: AT637 (peptide)
peptide: [Aib]GTFISDYSIAMDKIK(C16 diacid)QQDFVNWLLAQKPSSGAPPPS-OH
modifications: N-terminus assumed
SMILES: CC[C@H](C)[C@H](NC(=O)[C@H](CO)NC(=O)[C@H](Cc1ccc(O)cc1)NC(=O)[C@H](CC(=O)O)NC(=O)[C@H](CO)NC(=O)[C@@H](NC(=O)[C@H](Cc1ccccc1)NC(=O)[C@@H](NC(=O)CNC(=O)C(C)(C)N)[C@@H](C)O)[C@@H](C)CC)C(=O)N[C@@H](C)C(=O)N[C@@H](CCSC)C(=O)N[C@@H](CC(=O)O)C(=O)N[C@@H](CCCCN)C(=O)N[C@H](C(=O)N[C@@H](CCCCNC(=O)CCCCCCCCCCCCCCC(=O)O)C(=O)N[C@@H](CCC(N)=O)C(=O)N[C@@H](CCC(N)=O)C(=O)N[C@@H](CC(=O)O)C(=O)N[C@@H](Cc1ccccc1)C(=O)N[C@H](C(=O)N[C@@H](CC(N)=O)C(=O)N[C@@H](Cc1c[nH]c2ccccc12)C(=O)N[C@@H](CC(C)C)C(=O)N[C@@H](CC(C)C)C(=O)N[C@@H](C)C(=O)N[C@@H](CCC(N)=O)C(=O)N[C@@H](CCCCN)C(=O)N1CCC[C@H]1C(=O)N[C@@H](CO)C(=O)N[C@@H](CO)C(=O)NCC(=O)N[C@@H](C)C(=O)N1CCC[C@H]1C(=O)N1CCC[C@H]1C(=O)N1CCC[C@H]1C(=O)N[C@@H](CO)C(=O)O)C(C)C)[C@@H](C)CC
B4: AT640 (peptide)
peptide: [Aib]ETFISDYSIAMDKIK(C16 diacid)QQDFVNWLLAQKPSSGAPPPS-OH
modifications: N-terminus assumed
SMILES: CC[C@H](C)[C@H](NC(=O)[C@H](CO)NC(=O)[C@H](Cc1ccc(O)cc1)NC(=O)[C@H](CC(=O)O)NC(=O)[C@H](CO)NC(=O)[C@@H](NC(=O)[C@H](Cc1ccccc1)NC(=O)[C@@H](NC(=O)[C@H](CCC(=O)O)NC(=O)C(C)(C)N)[C@@H](C)O)[C@@H](C)CC)C(=O)N[C@@H](C)C(=O)N[C@@H](CCSC)C(=O)N[C@@H](CC(=O)O)C(=O)N[C@@H](CCCCN)C(=O)N[C@H](C(=O)N[C@@H](CCCCNC(=O)CCCCCCCCCCCCCCC(=O)O)C(=O)N[C@@H](CCC(N)=O)C(=O)N[C@@H](CCC(N)=O)C(=O)N[C@@H](CC(=O)O)C(=O)N[C@@H](Cc1ccccc1)C(=O)N[C@H](C(=O)N[C@@H](CC(N)=O)C(=O)N[C@@H](Cc1c[nH]c2ccccc12)C(=O)N[C@@H](CC(C)C)C(=O)N[C@@H](CC(C)C)C(=O)N[C@@H](C)C(=O)N[C@@H](CCC(N)=O)C(=O)N[C@@H](CCCCN)C(=O)N1CCC[C@H]1C(=O)N[C@@H](CO)C(=O)N[C@@H](CO)C(=O)NCC(=O)N[C@@H](C)C(=O)N1CCC[C@H]1C(=O)N1CCC[C@H]1C(=O)N1CCC[C@H]1C(=O)N[C@@H](CO)C(=O)O)C(C)C)[C@@H](C)CC
B5: AT638 (peptide)
peptide: PGTFISDYSIAMDKIK(C16 diacid)QQDFVNWLLAQKPSSGAPPPS-OH
modifications: N-terminus assumed
SMILES: CC[C@H](C)[C@H](NC(=O)[C@H](CO)NC(=O)[C@H](Cc1ccc(O)cc1)NC(=O)[C@H](CC(=O)O)NC(=O)[C@H](CO)NC(=O)[C@@H](NC(=O)[C@H](Cc1ccccc1)NC(=O)[C@@H](NC(=O)CNC(=O)[C@@H]1CCCN1)[C@@H](C)O)[C@@H](C)CC)C(=O)N[C@@H](C)C(=O)N[C@@H](CCSC)C(=O)N[C@@H](CC(=O)O)C(=O)N[C@@H](CCCCN)C(=O)N[C@H](C(=O)N[C@@H](CCCCNC(=O)CCCCCCCCCCCCCCC(=O)O)C(=O)N[C@@H](CCC(N)=O)C(=O)N[C@@H](CCC(N)=O)C(=O)N[C@@H](CC(=O)O)C(=O)N[C@@H](Cc1ccccc1)C(=O)N[C@H](C(=O)N[C@@H](CC(N)=O)C(=O)N[C@@H](Cc1c[nH]c2ccccc12)C(=O)N[C@@H](CC(C)C)C(=O)N[C@@H](CC(C)C)C(=O)N[C@@H](C)C(=O)N[C@@H](CCC(N)=O)C(=O)N[C@@H](CCCCN)C(=O)N1CCC[C@H]1C(=O)N[C@@H](CO)C(=O)N[C@@H](CO)C(=O)NCC(=O)N[C@@H](C)C(=O)N1CCC[C@H]1C(=O)N1CCC[C@H]1C(=O)N1CCC[C@H]1C(=O)N[C@@H](CO)C(=O)O)C(C)C)[C@@H](C)CC
B6: AT641 (peptide)
peptide: GETFISDYSIAMDKIK(C16 diacid)QQDFVNWLLAQKPSSGAPPPS-OH
modifications: N-terminus assumed
SMILES: CC[C@H](C)[C@H](NC(=O)[C@H](CO)NC(=O)[C@H](Cc1ccc(O)cc1)NC(=O)[C@H](CC(=O)O)NC(=O)[C@H](CO)NC(=O)[C@@H](NC(=O)[C@H](Cc1ccccc1)NC(=O)[C@@H](NC(=O)[C@H](CCC(=O)O)NC(=O)CN)[C@@H](C)O)[C@@H](C)CC)C(=O)N[C@@H](C)C(=O)N[C@@H](CCSC)C(=O)N[C@@H](CC(=O)O)C(=O)N[C@@H](CCCCN)C(=O)N[C@H](C(=O)N[C@@H](CCCCNC(=O)CCCCCCCCCCCCCCC(=O)O)C(=O)N[C@@H](CCC(N)=O)C(=O)N[C@@H](CCC(N)=O)C(=O)N[C@@H](CC(=O)O)C(=O)N[C@@H](Cc1ccccc1)C(=O)N[C@H](C(=O)N[C@@H](CC(N)=O)C(=O)N[C@@H](Cc1c[nH]c2ccccc12)C(=O)N[C@@H](CC(C)C)C(=O)N[C@@H](CC(C)C)C(=O)N[C@@H](C)C(=O)N[C@@H](CCC(N)=O)C(=O)N[C@@H](CCCCN)C(=O)N1CCC[C@H]1C(=O)N[C@@H](CO)C(=O)N[C@@H](CO)C(=O)NCC(=O)N[C@@H](C)C(=O)N1CCC[C@H]1C(=O)N1CCC[C@H]1C(=O)N1CCC[C@H]1C(=O)N[C@@H](CO)C(=O)O)C(C)C)[C@@H](C)CC

Target: T1, human GIP receptor
Experiment: cell-based or functional assay

| Binder | cAMP agonism % Emax [%] | cAMP antagonism [nM] | cAMP antagonism % inhib [%] | cAMP antagonism pIC50 |
| --- | --- | --- | --- | --- |
| B1 | 0 | 66.8 | 100 | 7.2 |
| B2 | 0 | 1.71 | 87 | 8.8 |
| B3 | 0 | 2.23 | 89 | 8.7 |
| B4 | 0 | 7.08 | 90 | 8.2 |
| B5 | 0 | 14.7 | 85 | 7.8 |
| B6 | 0 | 7.94 | 91 | 8.1 |
